This data set has as its system Hmp1 (Ustilago maydis). The data set is described as follows: competition.

G/A mismatch 50-mer: the binding signal (equal to C/T competitor at 75 nM) amounted to 1 fold.

In the case of G/C homoduplex 50-mer, the binding signal (4-fold more homoduplex needed than C/T competitor, exact homoduplex pair not stated) came to 4 fold.

Substance cruciform DNA 61-mer showed a binding signal (cruciform more effective competitor than C/T mismatch) of 7.5 fold.

(Values after patent US6232095.)
